From paper PMC4304825, “Six Amino Acid Residues in a 1200 Å2 Interface Mediate Binding of Factor VIII to an IgG4κ Inhibitory Antibody” (PLoS ONE, 2015) come the findings set out here.

Substitutions are numbered along the chain they refer to. Names may count otherwise.

The assay has as its target T1, von Willebrand factor (VWF) (UniProt P04275 764-2813).
T1 construct: von Willebrand factor; Immobilised by amine coupling
Put plainly: SPR; VWF attached to a CM4 chip by amine coupling at low density (200 RUs); BDD-FVIII proteins injected in a 3-fold concentration series from 0.22-18 nM, single-cycle kinetics; fit to a 1:1 model; Biacore T200. Particulars: both partners purified.

B1: WT-BDD-FVIII (wild-type B-domain-deleted factor VIII) (natural protein)
chain 1: ATRRYYLGAVELSWDYMQSDLGELPVDARFPPRVPKSFPFNTSVVYKKTLFVEFTDHLFNIAKPRPPWMGLLGPTIQAEVYDTVVITLKNMASHPVSLHAVGVSYWKASEGAEYDDQTSQREKEDDKVFPGGSHTYVWQVLKENGPMASDPLCLTYSYLSHVDLVKDLNSGLIGALLVCREGSLAKEKTQTLHKFILLFAVFDEGKSWHSETKNSLMQDRDAASARAWPKMHTVNGYVNRSLPGLIGCHRKSVYWHVIGMGTTPEVHSIFLEGHTFLVRNHRQASLEISPITFLTAQTLLMDLGQFLLFCHISSHQHDGMEAYVKVDSCPEEPQLRMKNNEEAEDYDDDLTDSEMDVVRFDDDNSPSFIQIRSVAKKHPKTWVHYIAAEEEDWDYAPLVLAPDDRSYKSQYLNNGPQRIGRKYKKVRFMAYTDETFKTREAIQHESGILGPLLYGEVGDTLLIIFKNQASRPYNIYPHGITDVRPLYSRRLPKGVKHLKDFPILPGEIFKYKWTVTVEDGPTKSDPRCLTRYYSSFVNMERDLASGLIGPLLICYKESVDQRGNQIMSDKRNVILFSVFDENRSWYLTENIQRFLPNPAGVQLEDPEFQASNIMHSINGYVFDSLQLSVCLHEVAYWYILSIGAQTDFLSVFFSGYTFKHKMVYEDTLTLFPFSGETVFMSMENPGLWILGCHNSDFRNRGMTALLKVSSCDKNTGDYYEDSYEDISAYLLSKNNAIEPR
chain 2: EITRTTLQSDQEEIDYDDTISVEMKKEDFDIYDEDENQSPRSFQKKTRHYFIAAVERLWDYGMSSSPHVLRNRAQSGSVPQFKKVVFQEFTDGSFTQPLYRGELNEHLGLLGPYIRAEVEDNIMVTFRNQASRPYSFYSSLISYEEDQRQGAEPRKNFVKPNETKTYFWKVQHHMAPTKDEFDCKAWAYFSDVDLEKDVHSGLIGPLLVCHTNTLNPAHGRQVTVQEFALFFTIFDETKSWYFTENMERNCRAPCNIQMEDPTFKENYRFHAINGYIMDTLPGLVMAQDQRIRWYLLSMGSNENIHSIHFSGHVFTVRKKEEYKMALYNLYPGVFETVEMLPSKAGIWRVECLIGEHLHAGMSTLFLVYSNKCQTPLGMASGHIRDFQITASGQYGQWAPKLARLHYSGSINAWSTKEPFSWIKVDLLAPMIIHGIKTQGARQKFSSLYISQFIIMYSLDGKKWQTYRGNSTGTLMVFFGNVDSSGIKHNIFNPPIIARYIRLHPTHYSIRSTLRMELMGCDLNSCSMPLGMESKAISDAQITASSYFTNMFATWSPSKARLHLQGRSNAWRPQVNNPKEWLQVDFQKTMKVTGVTTQGVKSLLTSMYVKEFLISSSQDGHQWTLFFQNGKVKVFQGNQDSFTPVVNSLDPPLLTRYLRIHPQSWVHQIALRMEVLGCEAQDLY
Molecule B1 showed a dissociation constant Kd of 0.29 nM, an off-rate (koff) of 0.00069 s⁻¹ and a kon of 2.4e+06 M⁻¹ s⁻¹.

B2: BDD-FVIII-M2199A (natural protein)
chain 1: B1 chain 1
chain 2: B1 chain 2 with M551A
Molecule B2 returned an equilibrium dissociation constant (Kd) of 0.25 nM, a koff of 0.00067 s⁻¹ and an on-rate (kon) of 2.7e+06 M⁻¹ s⁻¹.

B3: BDD-FVIII-F2196K (natural protein)
chain 1: B1 chain 1
chain 2: B1 chain 2 with F548K
In turn, B3 showed an equilibrium dissociation constant (Kd) of 0.2 nM, a koff of 0.00054 s⁻¹ and a kon of 2.9e+06 M⁻¹ s⁻¹.
